44 molecules from patent publication US20150031601A1 can be followed below.

This assay deals with serum proteins. Nature of the assay: 90% serum, 30 kDa ultrafiltration, HPLC.
With RFCWNVCVYRNGVRVCHRHCN [SEQ ID NO: 359], the Protein binding (%) was found to be 80%. For GFCFRSCVRRNGVRVCYRRCN [SEQ ID NO: 377] the value was 65%; for GFCWYACAKRNGLRVCYRRCN [SEQ ID NO: 450], 98%; for GFCWYVCYYRNGVRVCYRRCN [SEQ ID NO: 25], 98%. In the case of GFCWYVCVKRNGARKCHRRCN [SEQ ID NO: 454], the Protein binding (%) worked out at 90%. In the case of GFCWRVCASRNGLRVCYRRCN [SEQ ID NO: 435] it was 85%. In the case of GFCWYVCSYRNGVRVCYRRCN [SEQ ID NO: 24] it was 85%. GFCWYVCARRNGLRSCYRRCN [SEQ ID NO: 453] yielded a Protein binding (%) of 92%. For GFCWHVCARRNGARVCYRRCN [SEQ ID NO: 394] the value was 80%; for GFCWRVCHYRNSVRVCYRRCN [SEQ ID NO: 327], 98%. In the case of GFCAHVCVKRNGARVCYRRCN [SEQ ID NO: 362] it was 76%; in that of GFCWYVCVRRNGVRVCYRRCN [SEQ ID NO: 28], 92%. In the case of GFCWNACARRNGVRVCYRRCN [SEQ ID NO: 407] it was 88%; in that of GFCWYVCVYRNGGRVCYRRCN [SEQ ID NO: 30], 99%; in that of GFCWRVCVYSNGKRSCHRRCN [SEQ ID NO: 509], 87%.

Molecule GFCWRVCAYSNGKRVCYRRCN [SEQ ID NO: 425] showed a Protein binding (%) of 69%. For GFCFRVCVKRNGVRKCYRRCN [SEQ ID NO: 381] the value was 98%; for GFCWNVCAYRNGKRACYRRCN [SEQ ID NO: 411], 86%; for GFCWRVCVRRNGVRVCHRRCN [SEQ ID NO: 335], 95%. For GFCWHVCSKRNGLRVCYRRCN [SEQ ID NO: 396] the value was 92%; for GFCWRVCAYKNGKRSCYRRCN [SEQ ID NO: 523], 90%; for GFCWYACVYRNGKRACYRRCN [SEQ ID NO: 340], 98%.

On to GFCWRVCSYRNGVRKCYRRCN [SEQ ID NO: 331], for which the Protein binding (%) came out at 95%. In the case of GFCWYVCVYRNGPRVCYRRCN [SEQ ID NO: 33] it was 99%; in that of GFCWYVCVYRNGVRVCYRRCN [antimicrobial peptide of SEQ ID NO: 2 (the parent antimicrobial peptide)], 99.5%. In the case of GFCGRVCVYRNGKRACYRRCN [SEQ ID NO: 386] it was 81%; in that of GFCWYVCHYRNGVRVCYRRCN [SEQ ID NO: 23], 98%; in that of GFCGRVCVYKNGKRACYRRCN [SEQ ID NO: 493], 77%.

GFCWKVCARRNGARSCYRRCN [SEQ ID NO: 504] returned a Protein binding (%) of 95%. In the case of GFCWRVCVYRNGVRSCHRRCN [SEQ ID NO: 316] it was 90%; in that of GFCWRVCHYSNGKRVCYRRCN [SEQ ID NO: 439], 92%. For GFCARVCAKRNGVRVCYRRCN [SEQ ID NO: 363] the value was 80%; for GFCWYVCVYRNGVRGCYRRCN [SEQ ID NO: 38], 93%.

For GFCWYVCVYRNGSRVCYRRCN [SEQ ID NO: 36], the Protein binding (%) was found to be 60%. For GFCWYVCVYRNGARVCYRRCN [SEQ ID NO: 29] the value was 99%.

In turn, GFCWRACAYRNGKRVCYRRCN [SEQ ID NO: 417] registered a Protein binding (%) of 95%. For GACWYVCVYRNGVRVCYRRCN [SEQ ID NO: 3] the value was 86%; for GFCWRACVYRNGVRACYRRCN [SEQ ID NO: 319], 40%. For GFCWHVCVYKNGKRSCYRRCN [SEQ ID NO: 390] the value was 87%.

The molecule GFCWYVCAYRNGVRVCYRRCN [SEQ ID NO: 21] had a Protein binding (%) of 98.5%. In the case of GFCWRACAYRNGVRACYRRCN [SEQ ID NO: 418] it was 92%. In the case of GFCWYACAYRNGVRACYRRCN [SEQ ID NO: 343] it was 74%.

The molecule GFCWYTCVKRNGLRVCYRRCN [SEQ ID NO: 346] showed a Protein binding (%) of 86%.

GFCWRACVYRNGVRSCYRRCN [SEQ ID NO: 320] had a Protein binding (%) of 88%.
